This passage reports IC50 results from patent publication US20240251767A1 (LEVERAGEN, published 2024).

Like-named read-outs stand apart in the source and are kept apart here.

The target of experiment [1] is T1, Spike protein of the COVID-19 Spike-ACE2 Binding Assay Kit (Raybiotech) (SARS-CoV2, UniProt P0DTC2 319-541).
The target in experiment [2] is T1, Spike protein of the COVID-19 …. This is another data set of the same source.

B1: M2S521_378 Nb-human Fc fusion (Fc fusion, not shown: a dimerising Fc or GST)
VH: EVQLQQSGPELVKPGASVKISCKASGYTFTDYYMKWVKQSHGKSLEWIGDINPKNGGTNYNQKFKDKATLTVDKSSSTAYMELRSLTSEDSAVYYCARLEDGYYGYAIDYWSQGTSVTVSS
notes: also called LVGN-S231378; LVGN-S521378
Consider B1, for which, in experiment [1], the IC50 worked out at 3.3 nM.

B2: MS329_5 Nb-human Fc fusion (Fc fusion, not shown: a dimerising Fc or GST)
VH: EVQLQQSGPELVKPGASVKMSCKASGYTFTDYYIKWEKQSHGKSLEWIGDINPKNGETFYNQQFKGKATLTVDKSSSTAYMQLNSLTSEDSAVYYCARKEYGDYGYAVDYWGQGTSVTVSS
notes: also called LVGN-S3205; LVGN-53205
As to B2, the half-inhibitory concentration (IC50) in experiment [1] came out at 0.4 nM; in experiment [2], 0.397 nM.
